The results in this text go back to patent US20140287471A1, “VARIANT CBH I POLYPEPTIDES WITH REDUCED PRODUCT INHIBITION” (BP CORPORATION NORTN AMERICA INC., priority 2011, published 2014).

Changes are numbered by the printed parent chain.

Sequences and labels used below:
B1: 268Cys (protein, UniProt P62694 18-513, looked up, variant R268C)
Exoglucanase 1: QSACTLQSETHPPLTWQKCSSGGTCTQQTGSVVIDANWRWTHATNSSTNCYDGNTWSSTLCPDNETCAKNCCLDGAAYASTYGVTTSGNSLSIGFVTQSAQKNVGARLYLMASDTTYQEFTLLGNEFSFDVDVSQLPCGLNGALYFVSMDADGGVSKYPTNTAGAKYGTGYCDSQCPRDLKFINGQANVEGWEPSSNNANTGIGGHGSCCSEMDIWEANSISEALTPHPCTTVGQEICEGDGCGGTYSDNCYGGTCDPDGCDWNPYRLGNTSFYGPGSSFTLDTTKKLTVVTQFETSGAINRYYVQNGVTFQQPNAELGSYSGNELNDDYCTAEEAEFGGSSFSDKGGLTQFKKATSGGMVLVMSLWDDYYANMLWLDSTYPTNETSSTPGAVRGSCSTSSGVPAQVESQSPNAKVTFSNIKFGPIGSTGNPSGGNPPGGNRGTTTTRRPATTTGSSPGPTQSHYGQCGGIGYSGPTVCASGTTCQVLNPYYSQCL
B2: 268Pro (protein, UniProt P62694 18-513, looked up, variant R268P)
Exoglucanase 1: B1 Exoglucanase 1 with C251P
B3: 411Met (protein, UniProt P62694 18-513, looked up, variant R411M)
Exoglucanase 1: B1 Exoglucanase 1 with C251R, R394M
B4: 411Pro (protein, UniProt P62694 18-513, looked up, variant R411P)
Exoglucanase 1: B1 Exoglucanase 1 with C251R, R394P
B5: 411Gly (protein, UniProt P62694 18-513, looked up, variant R411G)
Exoglucanase 1: B1 Exoglucanase 1 with C251R, R394G
B6: 268A+411Val (protein, UniProt P62694 18-513, looked up, variant R268A R411V)
Exoglucanase 1: B1 Exoglucanase 1 with C251A, R394V
B7: 268A+411Leu (protein, UniProt P62694 18-513, looked up, variant R268A R411L)
Exoglucanase 1: B1 Exoglucanase 1 with C251A, R394L
B8: 268A+411Met (protein, UniProt P62694 18-513, looked up, variant R268A R411M)
Exoglucanase 1: B1 Exoglucanase 1 with C251A, R394M
B9: 268A+411Cys (protein, UniProt P62694 18-513, looked up, variant R268A R411C)
Exoglucanase 1: B1 Exoglucanase 1 with C251A, R394C
B10: 268Glu+411A (protein, UniProt P62694 18-513, looked up, variant R268E R411A)
Exoglucanase 1: B1 Exoglucanase 1 with C251E, R394A
B11: 268Trp+411A (protein, UniProt P62694 18-513, looked up, variant R268W R411A)
Exoglucanase 1: B1 Exoglucanase 1 with C251W, R394A
B12: 268His+411A (protein, UniProt P62694 18-513, looked up, variant R268H R411A)
Exoglucanase 1: B1 Exoglucanase 1 with C251H, R394A
B13: 268Lys+411A (protein, UniProt P62694 18-513, looked up, variant R268K R411A)
Exoglucanase 1: B1 Exoglucanase 1 with C251K, R394A
B14: 268Phe+411A (protein, UniProt P62694 18-513, looked up, variant R268F R411A)
Exoglucanase 1: B1 Exoglucanase 1 with C251F, R394A
B15: 268Gln+411A (protein, UniProt P62694 18-513, looked up, variant R268Q R411A)
Exoglucanase 1: B1 Exoglucanase 1 with C251Q, R394A
B16: 268Arg+411A (protein, UniProt P62694 18-513, looked up, variant R411A)
Exoglucanase 1: B1 Exoglucanase 1 with C251R, R394A
B17: 268Val+411A (protein, UniProt P62694 18-513, looked up, variant R268V R411A)
Exoglucanase 1: B1 Exoglucanase 1 with C251V, R394A

As a reminder, the IC50 is the point on the concentration scale where inhibition reaches its midpoint.

A short description of one series: 4-MUL cellobiose tolerance/inhibition assay, dose-response IC50 (Example 2). Type of series: biochemical. The note with it: 268 single substitution; averaged IC50 from Tables 8-11; read-out: 268— Measured (merged IC50). The gist of the method:
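IC50 reflects cellobiose concentration halving activity, fitted by four-parameter dose-response with zero activity fixed at knockout-strain background. Assays used 4-MUL (0.5 mM) with enzyme at 5 μg/mL or less, pH 6 MES, 25 mM gluconolactone blocking BG, cellobiose up to 100 mM; 4-MU fluorescence read.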
For the molecule B1, the IC50 came out at 0.38 mM.
As to B2, the IC50 came to 0.52 mM.

Staying with this series, now noted: 411 single substitution; averaged IC50 from Tables 8-11; read-out: 411— Measured (merged IC50).
In the case of B3, the IC50 was 3.34 mM.
Take B4: the IC50 is 1.13 mM.
The same measure, in the same setting: in the case of B5 it was 1.81 mM.

The series is the same for the next values; noted with them: double mutant 268A+411X; averaged IC50 from Tables 8-11; read-out: 268A+411— Measured (merged IC50).
In the case of B6, the IC50 was 14.8 mM.
In the case of B7, the IC50 is 22.7 mM.
For B8, the IC50 worked out at 11.7 mM.
Turning to B9, the IC50 was determined as 10.2 mM.

Staying with this series, now noted: double mutant 268A+411X; expected IC50 (additive values of single mutations); read-out: 268A+411— Expected IC50.
B6: the IC50 is 3.73 mM.
On the same count and under the same terms, in the case of B7 it was 7.12 mM; in that of B8, 3.91 mM.
Turning to B9, the 50% inhibitory concentration (IC50) came out at 1.74 mM.

Still in this series, the particulars now being: double mutant 268A+411X; measured versus expected additive IC50.
Consider B6, for which the “synergy of double mutant (measured vs expected additive IC50)” value worked out at 4.0.
With B7, the “synergy of double mutant (measured vs expected additive IC50)” value was 3.2.
Regarding B8, the “synergy of double mutant (measured vs expected additive IC50)” value is given as 3.0.
Turning to B9, the “synergy of double mutant (measured vs expected additive IC50)” value is listed as 5.8.

The same series, now with this note: double mutant 268X+411A; averaged IC50 from Tables 8-11; read-out: 268_+411A Measured (merged IC50).
With B10, the IC50 was 16.7 mM.
As for B11, the IC50 was 9.97 mM.
Regarding B12, the IC50 came to 5.27 mM.
As for B13, the IC50 was found to be 6.14 mM.
Consider B14, for which the IC50 was found to be 9.7 mM.
For B15, the IC50 amounted to 9.13 mM.
Consider B16, for which the IC50 worked out at 1.22 mM.
Same read-out and setting: in the case of B17 it was 9.49 mM.

Staying with this series, now noted: double mutant 268X+411A; expected IC50 (additive values of single mutations).
Molecule B10 had a 268 +411A Expected IC50 of 1.8 mM.
On to B11, for which the 268 +411A Expected IC50 stood at 1.69 mM.
The same measure, in the same setting: next, B12: 1.41 mM; B13: 1.29 mM; B14: 1.65 mM.
B16 yielded a 268 +411A Expected IC50 of 1.22 mM.
For the molecule B17, the 268 +411A Expected IC50 worked out at 1.57 mM.

The series is the same for the next values; noted with them: double mutant 268X+411A; measured versus expected additive IC50.
For B10, the “268_+411A Synergistic**↑” value was found to be 9.3.
The same measure, in the same setting: in the case of B11 it was 5.9; in that of B12, 3.7.
Take B13: the “268_+411A Synergistic**↑” value came out at 4.8.
On the same count and under the same terms, in the case of B14 it was 5.9; in that of B16, 1.0.
Regarding B17, the “268_+411A Synergistic**↑” value came to 6.0.

A further series in a line: 4-MUL assay, specific activity (Example 2). The series is classed as biochemical. The note with it: 268 single substitution. The method in brief: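 Specific activity derived from 4-MU standard curves and HPLC-quantified enzyme. Initial rates were taken over the first 15 min, with an endpoint read at 1 h (pH 10 carbonate quench), all at ex 365/em 450 nm. Conditions: 0.5 mM 4-MUL, 5 μg/mL enzyme, MES pH 6, 25 mM gluconolactone, cellobiose optional.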
For B1, the “268— Measured Specific Activity (SA)” value is listed as 1.81 μmol 4 MU/min/mg CBH I and the “268— Δ SA* (change in specific activity; ratio of variant: WT)” value is on record as 2.4.
For the molecule B2, the “268— Measured Specific Activity (SA)” value was determined as 3.38 μmol 4 MU/min/mg CBH I and the “268— Δ SA* (change in specific activity; ratio of variant: WT)” value was determined as 4.4.

The same series, now with this note: 411 single substitution.
Regarding B3, the “411— Measured Specific Activity (SA)” value is given as 0.57 μmol 4 MU/min/mg CBH I and the “411— Δ SA* (change in specific activity; ratio of variant: WT)” value is 0.7.
Turning to B4, the “411— Measured Specific Activity (SA)” value was determined as 0.70 μmol 4 MU/min/mg CBH I and the “411— Δ SA* (change in specific activity; ratio of variant: WT)” value is 0.9.
Consider B5, for which the “411— Measured Specific Activity (SA)” value is recorded as 0.60 μmol 4 MU/min/mg CBH I and the “411— Δ SA* (change in specific activity; ratio of variant: WT)” value turned out to be 0.8.

Still in this series, the particulars now being: double mutant 268A+411X.
For the molecule B6, the “268A+411— Measured Specific Activity (SA)” value is 1.78 μmol 4 MU/min/mg CBH I and the “268A+411— Δ SA* (change in specific activity; ratio of variant: WT)” value is 2.3.
Take B7: the “268A+411— Δ SA* (change in specific activity; ratio of variant: WT)” value was determined as 1.3.
B8: the “268A+411— Measured Specific Activity (SA)” value was 1.78 μmol 4 MU/min/mg CBH I and the “268A+411— Δ SA* (change in specific activity; ratio of variant: WT)” value is 2.3.
In the case of B9, the “268A+411— Measured Specific Activity (SA)” value was 1.85 μmol 4 MU/min/mg CBH I and the “268A+411— Δ SA* (change in specific activity; ratio of variant: WT)” value stood at 2.4.

The same series, now with this note: double mutant 268X+411A.
For the molecule B10, the “268— +411 A Measured Specific Activity (SA)” value worked out at 0.58 μmol 4 MU/min/mg CBH I and the “268— +411 A Δ SA* (change in specific activity; ratio of variant: WT)” value is 0.8.
B11: the “268— +411 A Measured Specific Activity (SA)” value worked out at 1.37 μmol 4 MU/min/mg CBH I and the “268— +411 A Δ SA* (change in specific activity; ratio of variant: WT)” value came to 1.8.
For the molecule B12, the “268— +411 A Measured Specific Activity (SA)” value amounted to 1.35 μmol 4 MU/min/mg CBH I and the “268— +411 A Δ SA* (change in specific activity; ratio of variant: WT)” value stood at 1.8.
With B13, the “268— +411 A Δ SA* (change in specific activity; ratio of variant: WT)” value is 0.7.
On to B14, for which the “268— +411 A Measured Specific Activity (SA)” value is recorded as 2.07 μmol 4 MU/min/mg CBH I and the “268— +411 A Δ SA* (change in specific activity; ratio of variant: WT)” value stood at 2.7.
Take B15: the “268— +411 A Measured Specific Activity (SA)” value is on record as 2.13 μmol 4 MU/min/mg CBH I and the “268— +411 A Δ SA* (change in specific activity; ratio of variant: WT)” value came to 2.8.
Regarding B16, the “268— +411 A Measured Specific Activity (SA)” value is 0.53 μmol 4 MU/min/mg CBH I and the “268— +411 A Δ SA* (change in specific activity; ratio of variant: WT)” value is reported as 0.7.
Regarding B17, the “268— +411 A Measured Specific Activity (SA)” value was found to be 1.43 μmol 4 MU/min/mg CBH I and the “268— +411 A Δ SA* (change in specific activity; ratio of variant: WT)” value is 1.9.
